# Positions count from the first letter of the chain named. Numbers in names are those of the source. No end group written: not given here.
# T1: human TACI-Fc (human, UniProt O14836 2-160, limits assumed)
# T1 construct: Generated in-house; not shown: Fc portion of human IgG1
# T1 sequence (looked up): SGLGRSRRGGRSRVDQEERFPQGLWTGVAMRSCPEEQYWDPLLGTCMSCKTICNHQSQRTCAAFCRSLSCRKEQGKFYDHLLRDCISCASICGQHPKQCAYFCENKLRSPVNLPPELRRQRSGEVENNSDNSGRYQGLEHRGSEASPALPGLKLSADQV
# B1: T175L (ligand)
# soluble APRIL monomer: AVLTQKQKKQHSVLHLVPINATSKDDSDVTEVMWQPALRRGRGLQAQGYGVRIQDAGVYLLYSQVLFQDVLFTMGQVVSREGQGRQETLFRCIRSMPSHPDRAYNSCYSAGVFHLHQGDILSVIIPRARAKLNLSPHGTFLGFVKL
# notes: FLAG-tagged soluble variant used as 293T conditioned medium; predicted TACI-selective; member of group m13; also called APRIL-T175L
# B2: T175Y (ligand)
# soluble APRIL monomer: B1 soluble APRIL monomer with L71Y
# notes: FLAG-tagged soluble variant used as 293T conditioned medium; predicted TACI-selective; member of group m13; also called APRIL-T175Y
# B3: T175F (ligand)
# soluble APRIL monomer: B1 soluble APRIL monomer with L71F
# notes: FLAG-tagged soluble variant used as 293T conditioned medium; predicted TACI-selective; member of group m13; also called APRIL-T175F
# B4: human BCMA-Fc (Fc fusion, UniProt Q02223 2-54, looked up)
# chain: LQMAGQCSQNEYFDSLLHACIPCQLRCSSNTPPLTCQRYCNASVTNSVKGTNA
# modifications: cysteine pairing not given here; also: fused to human IgG1 Fc, construct limits, linker and order not given here
# notes: Generated in-house; not shown: Fc portion of human IgG1
# B5: mouse BCMA-Fc (R&D Systems) (Fc fusion, UniProt O88472 2-49, looked up)
# chain: AQQCFHSEYFDSLLHACKPCHLRCSNPPATCQPYCDPSVTSSVKGTYT
# notes: Bought; also called mBCMA-Fc; murine BCMA-Fc; not shown: Fc portion of human IgG1
# B6: mouse TACI-Fc (R&D Systems) (Fc fusion, UniProt Q9ET35 5-129, looked up)
# chain: FCPKDQYWDSSRKSCVSCALTCSQRSQRTCTDFCKFINCRKEQGRYYDHLLGACVSCDSTCTQHPQQCAHFCEKRPRSQANLQPELGRPQAGEVEVRSDNSGRHQGSEHGPGLRLSSDQLTLYCT
# notes: Bought; also called mTACI-Fc; murine TACI-Fc; not shown: Fc portion of human IgG1
# B7: FLAG-tagged wild-type soluble APRIL (amino acid 105 to 250) (ligand)
# chain: B1 soluble APRIL monomer with L71T
# notes: Used as conditioned medium of transfected 293T cells, not purified; also called WT; WT APRIL; not shown: FLAG tag
# B8: APRIL-R206M (FLAG-tagged soluble variant) (ligand)
# chain: B1 soluble APRIL monomer with L71T, R102M
# notes: Used as conditioned medium; not shown: FLAG tag
# B9: APRIL-D205Y (FLAG-tagged soluble variant) (ligand)
# chain: B1 soluble APRIL monomer with L71T, D101Y
# notes: as for B8
# B10: APRIL-T175D (FLAG-tagged soluble variant) (ligand)
# chain: B1 soluble APRIL monomer with L71D
# notes: as for B8
# B11: R233E (ligand)
# soluble APRIL monomer: B1 soluble APRIL monomer with L71T, R129E
# notes: FLAG-tagged soluble variant used as 293T conditioned medium; predicted TACI-selective; member of group m13; also called APRIL-R233E
# B12: D132A (ligand)
# soluble APRIL monomer: B1 soluble APRIL monomer with D28A, L71T
# notes: FLAG-tagged soluble variant used as 293T conditioned medium; predicted TACI-selective; member of group m13; also called APRIL-D132A
# B13: APRIL-D132F (FLAG-tagged soluble variant) (ligand)
# chain: B1 soluble APRIL monomer with D28F, L71T
# notes: as for B8
# B14: APRIL-H241T (FLAG-tagged soluble variant) (ligand)
# chain: B1 soluble APRIL monomer with L71T, H137T
# notes: not shown: FLAG tag
# B15: R233A (ligand)
# soluble APRIL monomer: B1 soluble APRIL monomer with L71T, R129A
# notes: FLAG-tagged soluble variant used as 293T conditioned medium; predicted TACI-selective; member of group m13; also called APRIL-R233A
# B16: APRIL-D132Y (FLAG-tagged soluble variant) (ligand)
# chain: B1 soluble APRIL monomer with D28Y, L71T
# notes: as for B8
# Target: B6
# Assay: receptor-binding ELISA, mouse TACI-Fc coated [TACI selective, Ms TACI-Fc coated]
# Experimental: (§1) The relative binding of the variants to either BCMA or TACI, was tested using a binding ELISA. The following proteins were used: human BCMA-Fc, human TACI-Fc (both generated in-house), mouse BCMA-Fc (R&D Systems, Abingdon, UK), mouse TACI-Fc (R&D Systems); in all cases the Fc portion is from human IgG1. BCMA-Fc and TACI-Fc were coated on 96-well Nunc Maxisorp plates (Thermo Fischer Scientific, Roskilde, Denmark) at concentrations of 1 μg/ml and 2 μg/ml, respectively, in 0.5 M sodium bicarbonate buffer pH 9.5, overnight at 4° C. Plates were then blocked with 5% BSA for one hour at 37° C. Soluble APRIL variants in the form of tissue culture conditioned medium were then added to the plate for two hours at 37° C. Following APRIL binding, plates were washed three times with PBS, 0.05% TWEEN®20. Bound APRIL was detected with 1 μg/ml of HRP-coupled anti-FLAG M2 and visualized with 2,2′-azino-bis(3-ethylbenzothiazoline-6-sulphonic acid (ABTS) (Sigma-Aldrich). The absorbance was read at 405 nm using a UV-VIS microplate reader (BioRad, Veenendaal, The Netherlands).
row,binding result,Binder
1,no binding,B1
2,no binding,B2
3,no binding,B3

# Target: B7
# Assay: SPR (Biacore 2000), FLAG-APRIL captured by anti-FLAG M2, receptor-Fc injected, single cycle kinetics, 1:1 fit
# Experimental: (§2) FIG. 10: Surface Plasmon Resonance sensorgrams to illustrate binding of TACI-Fc and BCMA-Fc to WT and R206E-APRIL. Sensorgrams of human (Panel A) and mouse (Panel B) receptors binding to WT and R206E-APRIL. Stepwise increments in the curves represent sequential injections of receptor at the following concentrations: […]. In some cases, no value for affinity was calculated due to a low binding response or high drift.
# (§3) In order to further assess the binding properties of the mutants and to measure apparent affinities and kinetics of receptor binding, a Surface Plasmon Resonance based receptor binding assay was performed on a Biacore 2000 (GE Healthcare, Diegem, Belgium). Anti-FLAG-M2 monoclonal antibody (Sigma-Aldrich) was diluted at a concentration of 5 μg/ml in 10 mM sodium acetate pH 4.5 and covalently immobilized (approx 1500 RU) to a CM-5 sensor chip (GE Healthcare), using standard amine coupling chemistry according to manufacturer's guidelines (Amine coupling kit, GE Healthcare). The different FLAG-APRIL variants in the form of tissue culture supernatants were captured onto the chip via the FLAG-tag at 10 μl/minute for five minutes, giving capture levels ranging from 159 to 207 RU. As a reference lane, one of the flow cells was left free of soluble FLAG-APRIL, to control for any background binding. BCMA- or TACI-Fc were then injected for three minutes over all four flow cells at 30 μl/minutes at increasing concentrations (ranging from 1-50 nM) using the single cycle kinetics method at 25° C. Dissociation was monitored for five minutes. The resulting curves were fitted using a 1:1 Langmuir model using BIAevaluation software 4.1. For each combination of FLAG-APRIL and BCMA- or TACI-Fc, the apparent kₐ, kd and KD were calculated from a global fit of binding curves from at least three separate experiments. Non-specific binding in the reference cell was subtracted before curve fitting. Regeneration of the anti-FLAG antibody surface was carried out with a 10-minute injection at 30 μl/minute of a mixture of ⅓ volume of TBS pH 11.5, ⅓ volume of Ionic solution and ⅓ volume of water. The Ionic solution was comprised of KSCN (0.46 M), MgCl₂ (1.83 M), urea (0.92 M) and guanidine-HCl (1.83 M).
Kd [nM],koff [s⁻¹],kon [M⁻¹ s⁻¹],Binder
0.38,0.0002,530000,B4
0.14,0.00013,890000,B5
4.4,0.00075,170000,B6

# Target: T1, human TACI-Fc
# Assay: as above
# Experimental: as §2, §3
Kd [nM],koff [s⁻¹],kon [M⁻¹ s⁻¹],Binder
3.9,0.00041,110000,B7
0.32,0.00016,490000,B8

# Target: B5
# Assay: receptor-binding ELISA, mouse BCMA-Fc coated, dilution series of conditioned medium, anti-FLAG-HRP, OD 405 nm [BCMA selective, Ms BCMA-Fc coated]
# Experimental: as §1
row,binding result,Binder
1,binds,B9
2,binds,B8
3,binds,B10

# Target: B5
# Assay: receptor-binding ELISA, mouse BCMA-Fc coated, dilution series of conditioned medium, anti-FLAG-HRP, OD 405 nm [TACI selective, Ms BCMA-Fc coated]
# Experimental: as §1
row,binding result,Binder
1,binds,B1
2,binds,B11
3,binds,B12
4,binds,B2
5,binds,B13
6,binds,B14
7,binds,B15
8,binds,B3
9,binds,B16

# Target: B6
# Assay: receptor-binding ELISA, mouse TACI-Fc coated, dilution series of conditioned medium, anti-FLAG-HRP, OD 405 nm [TACI selective, Ms TACI-Fc coated]
# Experimental: as §1
row,binding result,Binder
1,binds,B11
2,binds,B12
3,binds,B14
4,binds,B15

# Reference: patent publication US20140178329A1 (INSTITUCIO CATALANA DE RECERCA I ESTUDIS AVANCATS ICREA, published 2014)
